Measured values as given in patent US20140271651A1 (AbbVie / Abbott, published 2014).

B1: anti-GP73 monoclonal antibody 1B-4971 (antibody, V domains shown)
VH: QVQLQQSGPALVKPGASVKMSCKASGYTFTNYVIHWVKQKPGQGLERIGYIWPYNDGTKFNEKFKGKATLTSDKSSSTAYMELSSLTSEDSAVYYCSSQQLAYWGQGTTLTVSS
VL: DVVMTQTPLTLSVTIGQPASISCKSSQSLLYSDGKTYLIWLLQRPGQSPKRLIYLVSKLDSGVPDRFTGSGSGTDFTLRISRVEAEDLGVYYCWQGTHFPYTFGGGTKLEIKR
notes: Biotin labelled in some assays; also called mAb 1B-4971; 1B-4971-Bt
B2: anti-GP73 monoclonal antibody 1B-3440 (antibody, V domains shown)
VH: EVQLVETGGGLVQPKGSLKLSCAASGFTFNTNAMNWVRQAPGKGLEWVARIRTKRYNYTTFYADSVKDRFTISRDDSQSMLFLQMNNLKTEDTAMYYCVTGGTGTFDYWGQGTTLTVSS
VL: EIVLTQSPTTMPASPGEKVTFTCSASSGISSNYLHWYQLKPGFSPKLLIYRTSNLASGVPARFSGGGSGTSYSLTIGTMEAEDVATYYCQQGFSIPLTFGAGTKLELKR
notes: Biotin labelled in some assays; also called mAb 1B-3440; 1B-3440-Bt
B3: anti-GP73 monoclonal antibody 1B-4863 (antibody, V domains shown)
VH: QVQLKESGPGLVAPSQSLSITCTVSGFSLTSYGVHWVRQSPGKGLEWLGVIWTGGSTNYNSALMSRLSISKDNSESQVFLKVNSLQTDDTGMYYCARDPGTDYFDYWGQGTTLTVSS
VL: DIVMTQSHKFMSTSIGDRVSISCKASQDVSIDVSWYQQKPGQSPTLLIYSASYRYIGVPDRFTGSGSGTAFTFTISSVQAEDLAIYYCQQHFTTPLTFGAGTKLELKR
notes: Biotin labelled in some assays; also called mAb 1B-4863; 1B-4863-Bt

Columns and labels:
[1] = target: T1, GP73-hFc (human GP73 amino acids 63 to 400 fused at the C-terminus to human IgG1 Fc) (human); test: EIA, supernatant 1:25 captured on sheep anti-mouse IgG Fc, GP73-hFc, biotin goat anti-GP73
T1 construct: Expressed in HEK293F, CHO or HepG2 cells; the host is named under assay; also called HEK expressed GP73-hFc; CHO expressed GP73-hFc
T1 chain: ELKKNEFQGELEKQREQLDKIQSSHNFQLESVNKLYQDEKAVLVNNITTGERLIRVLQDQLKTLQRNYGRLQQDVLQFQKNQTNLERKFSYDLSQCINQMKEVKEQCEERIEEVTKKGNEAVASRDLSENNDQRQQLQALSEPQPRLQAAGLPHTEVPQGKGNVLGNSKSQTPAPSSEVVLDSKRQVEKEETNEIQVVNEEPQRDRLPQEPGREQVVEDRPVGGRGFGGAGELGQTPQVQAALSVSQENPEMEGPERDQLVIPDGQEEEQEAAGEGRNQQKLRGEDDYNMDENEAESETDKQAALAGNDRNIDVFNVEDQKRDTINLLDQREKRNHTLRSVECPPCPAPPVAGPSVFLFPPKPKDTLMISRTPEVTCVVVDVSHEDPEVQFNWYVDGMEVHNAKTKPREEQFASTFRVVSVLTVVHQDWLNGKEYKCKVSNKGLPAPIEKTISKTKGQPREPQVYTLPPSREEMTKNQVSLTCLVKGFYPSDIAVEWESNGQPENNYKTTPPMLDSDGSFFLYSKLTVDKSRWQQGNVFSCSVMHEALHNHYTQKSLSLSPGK
Experimental: (§1) Cell supernatant samples were analyzed for anti-GP73 antibodies by EIA. Sheep anti-mouse IgG Fc (Jackson Immunoresearch) was coated on 96 well micro-titer EIA plates at 1 μg/mL. After the capture reagent was coated on the solid phase, it was removed and the plates were blocked using a BSA/PBS block solution. The wells were washed with distilled water and cell supernatants were added to the blocked plates and allowed to incubate at room temperature for at least one hour. A mouse monoclonal antibody 14H4-23 (Drexel University) was used a positive control. The anti-mouse IgG Fc captured the anti-GP73 mouse antibody from the supernatant. Following the incubation, the supernatants were washed off using distilled water. An irrelevant mouse-human chimeric antibody was added to all wells and incubated at room temperature for 30 min to block any captured mouse antibodies that react with the human IgG Fc fusion protein linked to the GP73 antigen. The wells were washed with distilled water and GP73-hFc was added to the plates at 200 ng/mL and incubated for 30 min. Following this incubation, the antigen was washed from the plates using distilled water. Biotin labeled goat anti-GP73 was added to the plates at 200 ng/mL and incubated for 30 min at room temperature. The plates were washed and streptavidin-HRPO (Jackson Immunoresearch) (diluted to approximately 200 ng/mL) was added to the plates and allowed to incubate for 30 min. The plates were washed with distilled water and OPD substrate was used as the chromagen to generate signal. Plates were read at 492 nm and the results were analyzed.
Positive clones were expanded to 24 well plates in IMDM supplemented with 10% FBS and HT supplement. Following 5-14 days growth, the 24 well cultures were evaluated by EIA in the same manner as previously described, except the supernatant samples were titrated against GP73-hFc and BSA to eliminate non-specific protein binders. Once again the clones generating signal at least 3 times greater than background were considered positive and selected for further evaluation.

[2] = target: T1, GP73-hFc (human GP73 amino acids 63 to …); test: SPR Biacore 2000, mAb captured on rabbit anti-mouse IgG, HEK GP73-hFc analyte 0.412-100 nM, 1:1 fit
Experimental: First, an approximately 13,000-15,000 RU rabbit anti-mouse IgG Capture Biosensor was created by amine-coupling rabbit anti-mouse IgG antibody (GE Healthcare) to a CM5 biosensor chip (GE Healthcare) via EDC/NHS/ethanolamine chemistry provided in an Amine Coupling Kit (GE Healthcare) after pre-treating the biosensor with duplicate injections of 100 mM HCl, 50 mM NaOH, and 0.1% SDS. Purified GP73 antibody and antigen (HEK GP73-hFc) were diluted into a running buffer (hereinafter “running buffer”) composed of HBS-EP buffer (GE Healthcare) supplemented with 0.1% BSA and 0.1% CM-Dextran. Each GP73 antibody was diluted to 1 μg/mL. The GP73-hFc antigen was diluted to concentrations of 0.412 to 100 nM using a 3-fold dilution series assuming an oligomeric molecular weight of 490 kDa (Abbott Laboratories).
The GP73-hFc antigen program was as follows. After equilibrating the rabbit anti-mouse IgG Capture Biosensor for 3 min at 5 μL/minute with running buffer, GP73 antibody (7-14 μL) was injected over individual flow cells with one flow cell being left blank as a reference flow cell. The flow cells were washed with running buffer for 3 min at a flow rate of 60 μL/min. 150 μL of HEK293 expressed GP73-hFc antigen at a random concentration was injected across the biosensor. The biosensor was subsequently re-equilibrated with running buffer for 5 min at a flow rate of 60 μL/minute. All biosensor surfaces were regenerated with one 30 μL injection of 10 mM glycine, pH 1.7 (GE Healthcare), at a flow rate of 10 μL/minute. All concentrations of HEK293 expressed antigen were tested in duplicate. The binding kinetics (association and dissociation) were monitored via sensorgrams during antigen injection and running buffer re-equilibration. The sensorgrams were double-referenced and fit to a 1:1 binding model using Scrubber 2.0 software (BioLogic Software Pty Ltd., Australia) to determine association and dissociation rates, as well as overall KD. Standard errors of determined values are reported in parentheses with respect to the smallest number place value.

bovine serum albumin = target: T2, bovine serum albumin (bovine, UniProt P02769 25-607); test: sandwich EIA, rabbit anti-GP73 coated 1 ug/mL, BSA background, supernatant 1:125, HRP goat anti-mouse IgG Fc
T2 construct: also called BSA
T2 sequence (P02769 25-607 limits assumed): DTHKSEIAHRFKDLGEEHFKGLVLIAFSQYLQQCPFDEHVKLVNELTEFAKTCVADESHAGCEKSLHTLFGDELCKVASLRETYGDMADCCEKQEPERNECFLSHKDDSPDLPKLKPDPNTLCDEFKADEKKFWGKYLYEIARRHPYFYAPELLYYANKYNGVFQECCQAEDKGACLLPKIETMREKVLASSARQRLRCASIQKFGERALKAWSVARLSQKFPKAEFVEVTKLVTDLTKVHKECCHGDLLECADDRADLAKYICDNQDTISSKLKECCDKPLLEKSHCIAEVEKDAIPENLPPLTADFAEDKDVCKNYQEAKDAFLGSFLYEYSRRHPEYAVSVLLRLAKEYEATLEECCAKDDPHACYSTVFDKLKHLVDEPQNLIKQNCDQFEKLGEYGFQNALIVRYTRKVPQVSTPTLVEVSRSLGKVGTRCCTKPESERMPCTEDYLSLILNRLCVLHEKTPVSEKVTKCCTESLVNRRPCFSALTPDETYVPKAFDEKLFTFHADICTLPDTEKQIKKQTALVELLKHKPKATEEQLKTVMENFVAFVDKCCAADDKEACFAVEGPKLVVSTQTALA
Experimental: as §1
(§2) The 24 well cultures were then evaluated by EIA for their ability to form a sandwich with the rabbit anti-GP73 used as a capture reagent coated directly on the solid phase. The same EIA protocol previously described was used, except rabbit anti-GP73 antibody was coated at 1 μg/mL, the GP73-hFc was tested at 200 ng/mL, and a HRP labeled goat anti-mouse IgG FC antibody was used as the conjugate reagent to generate signal.

[3] = target: T1, GP73-hFc (human GP73 amino acids 63 to …); test: sandwich EIA, rabbit anti-GP73 coated 1 ug/mL, GP73-hFc 200 ng/mL, supernatant 1:125, HRP goat anti-mouse IgG Fc
Experimental: as §1, §2

[4] = target: T1, GP73-hFc (human GP73 amino acids 63 to …); test: EIA, supernatant mAb captured on sheep anti-mouse IgG Fc, GP73-hFc 200 ng/mL, biotin goat anti-GP73/streptavidin-HRPO; background 0.06
Experimental: as §1

Binder | GP73-hFc OD (A492) [1] | Kd [2] | kon [2] | BSA Background OD (A492) (bovine serum albumin) | GP73-hFc OD (A492) [3] | OD (A492) [4] | koff [2]
B1 | 2.1 OD (A492) | ≤ 0.002 nM | 3.9e+06 M⁻¹ s⁻¹ | 0.1 OD (A492) | 1.6 OD (A492) | 1.79 OD (A492) | –
B2 | 1.51 OD (A492) | 0.091 nM | 1.98e+06 M⁻¹ s⁻¹ | 0.12 OD (A492) | 0.76 OD (A492) | 1.46 OD (A492) | 0.00018 s⁻¹
B3 | 1.61 OD (A492) | 0.12 nM | 2.06e+06 M⁻¹ s⁻¹ | 0.1 OD (A492) | 1.41 OD (A492) | 1.44 OD (A492) | 0.00025 s⁻¹
